# Test results published in paper PMC5838018, “The Conserved ESCRT-III Machinery Participates in the Phagocytosis of Entamoeba histolytica” (Frontiers in Cellular and Infection Microbiology, 2018).
# T1: EhVps32 (Entamoeba histolytica (endogenous in …, UniProt C4M1A5 1-204))
# T1 construct: EhVps32, Entamoeba histolytica ESCRT-III protein (ortholog of yeast Snf7/Vps32 and human CHMP4), endogenous in trophozoites; Precipitated and detected with the mouse polyclonal α-rEhVps32 antibody; also called EhVps32 protein; source: endogenous, E. histolytica trophozoites (lysate for immunoprecipitation; fixed, permeabilized cells for flow cytometry)
# T1 sequence: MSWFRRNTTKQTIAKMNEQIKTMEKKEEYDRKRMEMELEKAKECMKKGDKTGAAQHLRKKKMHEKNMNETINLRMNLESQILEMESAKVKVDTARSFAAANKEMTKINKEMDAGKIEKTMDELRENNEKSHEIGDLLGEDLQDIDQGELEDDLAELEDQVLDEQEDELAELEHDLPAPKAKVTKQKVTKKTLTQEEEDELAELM
# B1: EhVps2 (natural protein)
# chain: MSRLFHKKTPQEIVREQKLNISKSIREITRESKRLEREEVRLTNEIRKMARLGRTNTVKVMAADLVKTKKQIDKLQVVIAQLNSTKMKLTEMSSMVAVTEAMNGVTNAMRKVNEATKLPAMQKVMNDFEKQNAELGIKNTMVSDMVNEGYEGDDIEEETELEVDKVLTEIGLDVENGLKPVPETRQRNTRLKERRQVQMEGGVKTRNEGNEQPEDLDTPGSRVPKAFNEGEDDEDEDDIVSRIANL
# notes: EhVps2, Entamoeba histolytica ESCRT-III protein, endogenous in trophozoites; also called EhVps2 protein; source: endogenous, E. histolytica trophozoites (lysate for immunoprecipitation; fixed, permeabilized cells for flow cytometry)
# B2: EhVps20 (natural protein)
# chain: MLNRFIGKNEEPSIDETHAILESRVTDLDQKIVDLDRQIRQNIEMSHKTTGAESQRYKQKALMLLKQKKQHEQHRDITERHQMNLENVQFQVDQMKDYKKVYDAMAASNRQMKLISRQFDINSIEDVQDSMMNFAEDQQEFGDILSQDITNMDLNELDDELAELGDSMFEGDIQIPESDGFGSVPITNEPFRQKEESQPDDKKFAI
# notes: EhVps20, Entamoeba histolytica ESCRT-III protein, predicted 206 amino acids, endogenous in trophozoites; also called EhVps20 protein; source: endogenous, E. histolytica trophozoites (lysate for immunoprecipitation; fixed, permeabilized cells for flow cytometry)
# B3: EhVps24 (natural protein)
# chain: MGNLNSQTVDNSFQQKQFELKVNRDNLSKREKEYQNNIEKLNKEARKYCRKGDKENAKRQIKLRTLYETNLKEIRCYLDQTETILIQLEASKRNYDVAKLMDESNKEIKKILNKIPKNFIEEIINTKKENSDKLKEIDSLYEQLNDIDNENQIEQELNKLALEVMSEKEGGIEAVKNEVIAESLPEVNSQSDMLISKQNIVIETF
# notes: EhVps24, Entamoeba histolytica ESCRT-III protein, endogenous in trophozoites; also called EhVps24 protein; source: endogenous, E. histolytica trophozoites (lysate for immunoprecipitation; fixed, permeabilized cells for flow cytometry)
# Experiments:
# EhVps24 = target: B3; test: flow cytometry on cells; PFA-fixed, Triton X-100 permeabilized trophozoites after 0, 5 and 30 min of erythrophagocytosis, stained with couples of primary antibodies and secondary antibodies with distinct fluorochromes; percent association of each couple; conditions: partners not purified
# EhVps32 = target: T1, EhVps32; test: as above; conditions: partners not purified
Binder,"percent interaction, 30 min of erythrophagocytosis (EhVps24) [%]","percent interaction, 30 min of erythrophagocytosis (EhVps32) [%]"
B1,10,
B2,,~47
B3,,~47
